PMC12262686 (bioRxiv, 2025)
“And” between values parts separate entries of the source, which are not always exact repeats. Identical values can stand only once.

Biological target: T1, Speckle-type POZ protein (SPOP), full-length, wild type (human), O43791
T1 chain: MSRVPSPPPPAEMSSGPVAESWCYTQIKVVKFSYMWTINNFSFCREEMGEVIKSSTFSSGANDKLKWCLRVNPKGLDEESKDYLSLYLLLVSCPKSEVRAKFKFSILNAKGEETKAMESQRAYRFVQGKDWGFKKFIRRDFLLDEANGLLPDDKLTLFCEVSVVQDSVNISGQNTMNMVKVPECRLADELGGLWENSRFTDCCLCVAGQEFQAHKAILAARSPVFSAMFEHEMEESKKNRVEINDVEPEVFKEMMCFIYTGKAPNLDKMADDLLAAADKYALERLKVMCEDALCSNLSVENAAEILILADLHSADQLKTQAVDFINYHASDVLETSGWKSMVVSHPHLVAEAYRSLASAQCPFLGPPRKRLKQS
Experiment: cryo-EM structure
Conditions: remark: other sources report otherwise

B1: Speckle-type POZ protein (SPOP), full-length, wild type, O43791 1-374 (natural protein)
chain: T1 chain
In the case of B1, the stoichiometry N is reported as 48 monomers and 56 monomers.
